Patent US20060239998A1

How the values were obtained:
[1] = target: Factor VIII (human recombinant FVIII) (human) (UniProt P00451); assay: cell-based or functional assay
[2] = target: polyclonal antibodies of 6 unrelated patients with haemophilia A and inhibitor towards the C2 domain; assay: immunoprecipitation of radiolabelled C2 domain with patient polyclonal antibodies and protein A Sepharose; Ab 14C12 added at increasing concentration
[3] = target: BO2C11 surface antibody on the BO2C11 lymphoblastoid B-cell line; assay: flow cytometry on the BO2C11 lymphoblastoid cell line, 1 or 10 µg/ml antibody, anti-mouse IgG-FITC
[4] = target: human monoclonal antibody BO2C11, FVIII-specific IgG4kappa inhibitory antibody against the C2 domain; assay: surface plasmon resonance
[5] = target: human monoclonal antibody BO2C11, FVIII-specific IgG4kappa inhibitory antibody against the C2 domain; assay: cell-based or functional assay
[6] = target: polyclonal antibodies of the patient from whom BO2C11 was derived; assay: cell-based or functional assay

Factor VIII (human recombinant FVIII) (human), sequence (P00451 20-2351): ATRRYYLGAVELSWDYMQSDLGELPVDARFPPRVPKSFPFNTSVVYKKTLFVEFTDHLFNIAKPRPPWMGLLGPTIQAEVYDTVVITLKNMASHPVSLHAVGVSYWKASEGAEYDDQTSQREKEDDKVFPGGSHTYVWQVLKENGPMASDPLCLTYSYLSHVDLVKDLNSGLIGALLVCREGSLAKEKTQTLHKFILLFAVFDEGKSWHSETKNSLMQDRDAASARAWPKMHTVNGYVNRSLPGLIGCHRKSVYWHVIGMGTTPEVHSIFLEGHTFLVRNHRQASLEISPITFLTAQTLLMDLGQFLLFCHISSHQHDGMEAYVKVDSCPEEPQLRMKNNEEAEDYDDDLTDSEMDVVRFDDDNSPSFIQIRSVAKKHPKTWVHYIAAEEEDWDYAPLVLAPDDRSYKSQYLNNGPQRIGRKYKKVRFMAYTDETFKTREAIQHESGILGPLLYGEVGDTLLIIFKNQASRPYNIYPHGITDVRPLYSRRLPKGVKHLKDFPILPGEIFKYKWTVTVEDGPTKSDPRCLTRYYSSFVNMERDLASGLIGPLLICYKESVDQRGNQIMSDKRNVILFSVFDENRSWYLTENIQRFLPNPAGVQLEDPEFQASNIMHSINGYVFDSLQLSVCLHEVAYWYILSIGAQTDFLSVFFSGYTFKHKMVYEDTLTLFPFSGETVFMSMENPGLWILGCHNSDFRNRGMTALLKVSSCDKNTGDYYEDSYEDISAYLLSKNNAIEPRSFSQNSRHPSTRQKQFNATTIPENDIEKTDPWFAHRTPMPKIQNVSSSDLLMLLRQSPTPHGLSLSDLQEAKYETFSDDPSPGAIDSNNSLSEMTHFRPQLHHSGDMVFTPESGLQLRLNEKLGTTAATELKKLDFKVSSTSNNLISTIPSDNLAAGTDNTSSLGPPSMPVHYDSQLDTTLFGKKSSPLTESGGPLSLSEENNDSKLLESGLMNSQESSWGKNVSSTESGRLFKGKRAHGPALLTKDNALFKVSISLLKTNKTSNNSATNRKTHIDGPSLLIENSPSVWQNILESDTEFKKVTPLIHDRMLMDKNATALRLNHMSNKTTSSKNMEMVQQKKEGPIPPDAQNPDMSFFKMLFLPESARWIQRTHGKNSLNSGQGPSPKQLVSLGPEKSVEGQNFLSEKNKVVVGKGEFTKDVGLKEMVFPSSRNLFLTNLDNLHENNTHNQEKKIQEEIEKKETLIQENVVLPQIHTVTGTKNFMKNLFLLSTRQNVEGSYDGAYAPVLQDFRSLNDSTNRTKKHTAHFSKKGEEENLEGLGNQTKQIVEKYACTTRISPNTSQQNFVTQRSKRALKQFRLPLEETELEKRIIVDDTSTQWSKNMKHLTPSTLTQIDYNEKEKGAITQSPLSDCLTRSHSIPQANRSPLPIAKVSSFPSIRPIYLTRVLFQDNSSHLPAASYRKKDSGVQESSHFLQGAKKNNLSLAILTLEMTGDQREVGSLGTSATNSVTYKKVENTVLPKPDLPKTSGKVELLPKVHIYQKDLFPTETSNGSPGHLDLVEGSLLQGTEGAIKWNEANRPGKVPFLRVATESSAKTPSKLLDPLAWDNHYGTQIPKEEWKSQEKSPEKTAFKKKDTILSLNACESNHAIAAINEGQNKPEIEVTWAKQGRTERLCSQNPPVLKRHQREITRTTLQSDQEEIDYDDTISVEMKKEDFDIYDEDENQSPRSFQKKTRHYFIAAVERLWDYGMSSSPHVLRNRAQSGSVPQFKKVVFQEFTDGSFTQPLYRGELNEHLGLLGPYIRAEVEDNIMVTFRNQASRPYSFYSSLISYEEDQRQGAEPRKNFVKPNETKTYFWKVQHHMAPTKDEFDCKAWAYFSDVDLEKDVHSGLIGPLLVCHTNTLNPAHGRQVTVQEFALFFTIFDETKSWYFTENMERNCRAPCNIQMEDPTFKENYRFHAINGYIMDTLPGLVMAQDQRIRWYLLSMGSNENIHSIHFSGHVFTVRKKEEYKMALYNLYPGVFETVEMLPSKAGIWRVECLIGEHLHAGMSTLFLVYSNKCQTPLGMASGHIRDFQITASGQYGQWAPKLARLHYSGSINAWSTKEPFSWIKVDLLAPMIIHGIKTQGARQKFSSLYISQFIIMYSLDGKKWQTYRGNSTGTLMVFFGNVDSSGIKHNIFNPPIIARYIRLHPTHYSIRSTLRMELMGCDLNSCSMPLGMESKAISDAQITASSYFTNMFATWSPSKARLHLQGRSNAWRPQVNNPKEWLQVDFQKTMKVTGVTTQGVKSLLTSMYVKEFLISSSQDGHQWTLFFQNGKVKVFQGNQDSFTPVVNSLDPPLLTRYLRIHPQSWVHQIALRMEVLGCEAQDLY

B1: human monoclonal antibody BO2C11, FVIII-specific IgG4kappa inhibitory antibody against the C2 domain (antibody, from another filing, V domains shown)
VH: QVQLVQSGAEVKKPGASVKVSCKVSGYTLTELPVHWVRQAPGKGLEWVGSFDPESGESIYAREFQGSVTMTADTSTDIAYMELSSLRSDDTAVYYCAVPDPDAFDIWGQGTMVTVSS
VL: EIALTQSPGTLSLSPGERATLSCRASQSFSSSYLAWYQQKPGQAPRLLIYGASTRATGIPDRFSGSGSGTDFTLTISRLEPEDFAVYYCQKYGTSAITFGQGTRLEIK
inhibition of FVIII procoagulant activity in FVIII-/- mice (% inhibition at 0.5 µg BO2C11) [1]: 98 | inhibition of FVIII-dependent substrate conversion (Faktor VIII chromogen test) (% inhibition at 0.1 µg/ml BO2C11) [1]: 100

B2: anti-idiotypic antibody Ab 14C12 obtained from cell line 14C12 (LMBP 5878CB) (antibody, V domains shown)
VH: EVQLQQSGPELVKPGASVKLSCKASGYTFTSSVMHWLKQKSGQGLEWIGYINPYNDGTKYNEKFTAKATLTSDKSSSTVYMELSGLTSEDFAVYYCARSGGLLRGYWYFDVWGAGTTVTVSS
VL: DLVLTQSPATLSVTPGDSVSLSCRASQDITNTLHWYHQKSHESPRLLIKYVSQSISGIPSRFSGSGSGTVFTLSINSVETEDFGVYFCQQSTSWPYTFGGGTKLEIKR
percent neutralisation [2]: 50% | percent of cells positive [3]: 68% | koff [4]: 1e-05 s⁻¹ | in vivo neutralisation of BO2C11-mediated FVIII inhibition in FVIII-/- mice (% neutralisation at equimolar ratio) [5]: 50 | neutralisation of BO2C11 inhibitory capacity (chromogenic assay) ([5]; scale: % neutralisation at a '11' molar ratio): 50 | in vivo neutralisation of BO2C11-mediated FVIII inhibition in FVIII-/- mice ([5]; scale: molar excess of Ab 14C12 over BO2C11 for full neutralisation): 3.5

B3: anti-idiotypic antibody Ab 14C12 obtained from cell line 14C12 (LMBP 5878CB) (antibody, V domains shown)
VH: EVQLQQSGPELVKPGASVKLSCKASGYTFTSSVMHWLKQKSGQGLEWIGYINPYNDGTKYNEKFTAKATLTSDKSSSTVYMELSGLTSEDFAVYYCARSGGLLRGYWYFDVWGAGTTVTVSSAKTTAPSVYPLVPGC
VL: DLVLTQSPATLSVTPGDSVSLSCRASQDITNTLHWYHQKSHESPRLLIKYVSQSISGIPSRFSGSGSGTVFTLSINSVETEDFGVYFCQQSTSWPYTFGGGTKLEIKRADAAPTVSIFPPSSE
neutralisation of polyclonal anti-FVIII antibodies (chromogenic assay) (% neutralisation) [6]: < 60
